Laboratory results: paper doi:10.1101/764241
Where two headings read alike, the source gives them in different places.

What was measured:
[1] = target: Toxoplasma gondii Gat1 (Toxoplasma gondii); assay: SEC + AUC
[2] = target: Pythium ultimum Gat1 (Pythium ultimum); assay: AUC
[3] = target: Pythium ultimum Gat1 (Pythium ultimum); assay: AUC; remark: listed apart in the source

In the case of Toxoplasma gondii Gat1 (enzyme), the stoichiometry N [1] is reported as 2.

For Pythium ultimum Gat1 (enzyme), the stoichiometry N [2] was 2, the fold higher dimer affinity than Oc-glycogenin-1 (reported Kd 0.85 µM) [3] was > 2 fold and the stoichiometry N [3] was 2.
